Data as given in the PETadex activity labels (doi:10.1021/bi00096a018).

Substrate: Acetylcholine
Settings: pH 7; 22 °C

| Protein | Km [µM] | kcat [s⁻¹] | kcat/Km [M⁻¹ s⁻¹] |
| --- | --- | --- | --- |
| unnamed (protein) MRPPWYPLHTPSLAFPLLFLLLSLLGGGARAEGREDPQLLVRVRGGQLRGIRLKAPGGPVSAFLGIPFAEPPVGSRRFMPPEPKRPWSGVLDATTFQNVCYQYVDTLYPGFEGTEMWNPNRELSEDCLYLNVWTPYPRPASPTPVLIWIYGGGFYSGAASLDVYDGRFLAQVEGAVLVSMNYRVGTFGFLALPGSREAPGNVGLLDQRLALQWVQENIAAFGGDPMSVTLFGESAGAASVGMHILSLPSRSLFHRAVLQSGTPNGPWATVSAGEARRRATLLARLVGCPPGGAGGNDTELIACLRTRPAQDLVDHEWHVLPQESIFRFSFVPVVDGDFLSDTPEALINTGDFQDLQVLVGVVKDEGSAFLVYGVPGFSKDNESLISRAQFLAGVRIGVPQASDLAAEAVVLHYTDWLHPEDPTHLRDAMSAVVGDHNVVCPVAQLAGRLAAQGARVYAYIFEHRASTLTWPLWMGVPHGYEIEFIFGLPLDPSLNYTTEERIFAQRLMKYWTNFARTGDPNDPRDSKSPQWPPYTTAAQQYVSLNLKPLEVRRGLRAQTCAFWNRFLPKLLSATDTLDEAERQWKAEFHRWSSYMVHWKNQFDHYSKQERCSDL | 110 | 867 | – |
| unnamed (protein) MRPPWYPLHTPSLAFPLLFLLLSLLGGGARAEGREDPQLLVRVRGGQLRGIRLKAPGGPVSAFLGIPFAEPPVGSRRFMPPEPKRPWSGVLDATTFQNVCYQYVDTLYPGFEGTEMWNPNRELSEDCLYLNVWTPYPRPASPTPVLIWIYGGGFYSGAASLDVYDGRFLAQVEGAVLVSMNYRVGTFGFLALPGSREAPGNVGLLDQRLALQWVQENIAAFGGDPMSVTLFGESAGAASVGMHILSLPSRSLFHRAVLQSGTPNGPWATVSAGEARRRATLLARLVGCPPGGAGGNDTELIACLRTRPAQDLVDHEWHVLPQESIYRFSFVPVVDGDFLSDTPEALINTGDFQDLQVLVGVVKDEGSYFLVYGVPGFSKDNESLISRAQFLAGVRIGVPQASDLAAEAVVLHYTDWLHPEDPTHLRDAMSAVVGDHNVVCPVAQLAGRLAAQGARVYAYIFEHRASTLTWPLWMGVPHGYEIEFIFGLPLDPSLNYTTEERIFAQRLMKYWTNFARTGDPNDPRDSKSPQWPPYTTAAQQYVSLNLKPLEVRRGLRAQTCAFWNRFLPKLLSATDTLDEAERQWKAEFHRWSSYMVHWKNQFDHYSKQERCSDL | 17 | 102 | – |
| unnamed (protein) MRPPWYPLHTPSLAFPLLFLLLSLLGGGARAEGREDPQLLVRVRGGQLRGIRLKAPGGPVSAFLGIPFAEPPVGSRRFMPPEPKRPWSGVLDATTFQNVCYQYVDTLYPGFEGTEMWNPNRELSEDCLYLNVWTPYPRPASPTPVLIWIYGGGFYSGAASLDVYDGRFLAQVEGAVLVSMNYRVGTFGFLALPGSREAPGNVGLLDQRLALQWVQENIAAFGGDPMSVTLFGESAGAASVGMHILSLPSRSLFHRAVLQSGTPNGPWATVSAGEARRRATLLARLVGCPPGGAGGNDTELIACLRTRPAQDLVDHEWHVLPQESIFRFSFVPVVDGDFLSDTPEALINTGDFQDLQVLVGVVKDEGSYFLVYGVPGFSKDNESLISRAQFLAGVRIGVPQASDLAAEAVVLHYTDWLHPEDPTHLRDAMSAVVGDHNVVCPVAQLAGRLAAQGARVYAYIFEHRASTLTWPLWMGVPHGYEIEFIFGLPLDPSLNYTTEERIFAQRLMKYWTNFARTGDPNDPRDSKSPQWPPYTTAAQQYVSLNLKPLEVRRGLRAQTCAFWNRFLPKLLSATDTLDEAERQWKAEFHRWSSYMVHWKNQFDHYSKQERCSDL | 451000 | 667 | 1480 |
| unnamed (protein) MRPPWYPLHTPSLAFPLLFLLLSLLGGGARAEGREDPQLLVRVRGGQLRGIRLKAPGGPVSAFLGIPFAEPPVGSRRFMPPEPKRPWSGVLDATTFQNVCYQYVDTLYPGFEGTEMWNPNRELSEDCLYLNVWTPYPRPASPTPVLIWIYGGGFYSGAASLDVYDGRFLAQVEGAVLVSMNYRVGTFGFLALPGSREAPGNVGLLDQRLALQWVQENIAAFGGDPMSVTLFGESAGAASVGMHILSLPSRSLFHRAVLQSGTPNGPWATVSAGEARRRATLLARLVGCPPGGAGGNDTELIACLRTRPAQDLVDHEWHVLPQESILRISFVPVVDGDFLSDTPEALINTGDFQDLQVLVGVVKDEGSYFLVYGVPGFSKDNESLISRAQFLAGVRIGVPQASDLAAEAVVLHYTDWLHPEDPTHLRDAMSAVVGDHNVVCPVAQLAGRLAAQGARVYAYIFEHRASTLTWPLWMGVPHGYEIEFIFGLPLDPSLNYTTEERIFAQRLMKYWTNFARTGDPNDPRDSKSPQWPPYTTAAQQYVSLNLKPLEVRRGLRAQTCAFWNRFLPKLLSATDTLDEAERQWKAEFHRWSSYMVHWKNQFDHYSKQERCSDL | 200 | 200 | – |
| unnamed (protein) MRPPWYPLHTPSLAFPLLFLLLSLLGGGARAEGREDPQLLVRVRGGQLRGIRLKAPGGPVSAFLGIPFAEPPVGSRRFMPPEPKRPWSGVLDATTFQNVCYQNVDTLYPGFEGTEMWNPNRELSEDCLYLNVWTPYPRPASPTPVLIWIYGGGFQSGAASLDVYDGRFLAQVEGAVLVSMNYRVGTFGFLALPGSREAPGNVGLLDQRLALQWVQENIAAFGGDPMSVTLFGESAGAASVGMHILSLPSRSLFHRAVLQSGTPNGPWATVSAGEARRRATLLARLVGCPPGGAGGNDTELIACLRTRPAQDLVDHEAHVLPQESIFRFSFVPVVDGDFLSDTPEALINTGDFQDLQVLVGVVKDEGSYFLVYGVPGFSKDNESLISRAQFLAGVRIGVPQASDLAAEAVVLHYTDWLHPEDPTHLRDAMSAVVGDHNVVCPVAQLAGRLAAQGARVYAYIFEHRASTLTWPLWMGVPHGYEIEFIFGLPLDPSLNYTTEERIFAQRLMKYWTNFARTGDPNDPRDSKSPQWPPYTTAAQQYVSLNLKPLEVRRGLRAQTCAFWNRFLPKLLSATDTLDEAERQWKAEFHRWSSYMVHWKNQFDHYSKQERCSDL | 230 | 2500 | – |
| unnamed (protein) MRPPWYPLHTPSLAFPLLFLLLSLLGGGARAEGREDPQLLVRVRGGQLRGIRLKAPGGPVSAFLGIPFAEPPVGSRRFMPPEPKRPWSGVLDATTFQNVCYQNVNTLYPGFEGTEMWNPNRELSEDCLYLNVWTPYPRPASPTPVLIWIYGGGFQSGAASLDVYDGRFLAQVEGAVLVSMNYRVGTFGFLALPGSREAPGNVGLLDQRLALQWVQENIAAFGGDPMSVTLFGESAGAASVGMHILSLPSRSLFHRAVLQSGTPNGPWATVSAGEARRRATLLARLVGCPPGGAGGNDTELIACLRTRPAQDLVDHEAHVLPQESIFRFSFVPVVDGDFLSDTPEALINTGDFQDLQVLVGVVKDEGSYFLVYGVPGFSKDNESLISRAQFLAGVRIGVPQASDLAAEAVVLHYTDWLHPEDPTHLRDAMSAVVGDHNVVCPVAQLAGRLAAQGARVYAYIFEHRASTLTWPLWMGVPHGYEIEFIFGLPLDPSLNYTTEERIFAQRLMKYWTNFARTGDPNDPRDSKSPQWPPYTTAAQQYVSLNLKPLEVRRGLRAQTCAFWNRFLPKLLSATDTLDEAERQWKAEFHRWSSYMVHWKNQFDHYSKQERCSDL | 2100 | 2500 | – |
| unnamed (protein) MRPPWYPLHTPSLAFPLLFLLLSLLGGGARAEGREDPQLLVRVRGGQLRGIRLKAPGGPVSAFLGIPFAEPPVGSRRFMPPEPKRPWSGVLDATTFQNVCYQYVNTLYPGFEGTEMWNPNRELSEDCLYLNVWTPYPRPASPTPVLIWIYGGGFYSGAASLDVYDGRFLAQVEGAVLVSMNYRVGTFGFLALPGSREAPGNVGLLDQRLALQWVQENIAAFGGDPMSVTLFGESAGAASVGMHILSLPSRSLFHRAVLQSGTPNGPWATVSAGEARRRATLLARLVGCPPGGAGGNDTELIACLRTRPAQDLVDHEWHVLPQESIFRFSFVPVVDGDFLSDTPEALINTGDFQDLQVLVGVVKDEGSYFLVYGVPGFSKDNESLISRAQFLAGVRIGVPQASDLAAEAVVLHYTDWLHPEDPTHLRDAMSAVVGDHNVVCPVAQLAGRLAAQGARVYAYIFEHRASTLTWPLWMGVPHGYEIEFIFGLPLDPSLNYTTEERIFAQRLMKYWTNFARTGDPNDPRDSKSPQWPPYTTAAQQYVSLNLKPLEVRRGLRAQTCAFWNRFLPKLLSATDTLDEAERQWKAEFHRWSSYMVHWKNQFDHYSKQERCSDL | 1300 | 1400 | – |
| unnamed (protein) MRPPWYPLHTPSLAFPLLFLLLSLLGGGARAEGREDPQLLVRVRGGQLRGIRLKAPGGPVSAFLGIPFAEPPVGSRRFMPPEPKRPWSGVLDATTFQNVCYQYVDTLYPGFEGTEMWNPNRELSEDCLYLNVWTPYPRPASPTPVLIWIYGGGFYSGAASLDVYDGRFLAQVEGAVLVSMNYRVGTFGFLALPGSREAPGNVGLLDQRLALQWVQENIAAFGGDPMSVTLFGESAGAASVGMHILSLPSRSLFHRAVLQSGTPNGPWATVSAGEARRRATLLARLVGCPPGGAGGNDTELIACLRTRPAQDLVDHEWHVLPQESIFSFSFVPVVDGDFLSDTPEALINTGDFQDLQVLVGVVKDEGSYFLVYGVPGFSKDNESLISRAQFLAGVRIGVPQASDLAAEAVVLHYTDWLHPEDPTHLRDAMSAVVGDHNVVCPVAQLAGRLAAQGARVYAYIFEHRASTLTWPLWMGVPHGYEIEFIFGLPLDPSLNYTTEERIFAQRLMKYWTNFARTGDPNDPRDSKSPQWPPYTTAAQQYVSLNLKPLEVRRGLRAQTCAFWNRFLPKLLSATDTLDEAERQWKAEFHRWSSYMVHWKNQFDHYSKQERCSDL | 50 | 1530 | – |
| unnamed (protein) MRPPWYPLHTPSLAFPLLFLLLSLLGGGARAEGREDPQLLVRVRGGQLRGIRLKAPGGPVSAFLGIPFAEPPVGSRRFMPPEPKRPWSGVLDATTFQNVCYQYVDTLYPGFEGTEMWNPNRELSEDCLYLNVWTPYPRPASPTPVLIWIYGGGFYSGAASLDVYDGRFLAQVEGAVLVSMNYRVGTFGFLALPGSREAPGNVGLLDQRLALQWVQENIAAFGGDPMSVTLFGESAGAASVGMHILSLPSRSLFHRAVLQSGTPNGPWATVSAGEARRRATLLARLVGCPPGGAGGNDTELIACLRTRPAQDLVDHEWHVLPQESIFRISFVPVVDGDFLSDTPEALINTGDFQDLQVLVGVVKDEGSYFLVYGVPGFSKDNESLISRAQFLAGVRIGVPQASDLAAEAVVLHYTDWLHPEDPTHLRDAMSAVVGDHNVVCPVAQLAGRLAAQGARVYAYIFEHRASTLTWPLWMGVPHGYEIEFIFGLPLDPSLNYTTEERIFAQRLMKYWTNFARTGDPNDPRDSKSPQWPPYTTAAQQYVSLNLKPLEVRRGLRAQTCAFWNRFLPKLLSATDTLDEAERQWKAEFHRWSSYMVHWKNQFDHYSKQERCSDL | 357000 | 250 | 700 |
